Reference: US20210268070A1, “Use of Immunomodulators to Control Infection and Stimulate Healing in Normal and Diabetic Wounds” (priority 2018, published 2021)
“Also recorded” adds a separate entry of the source.

Assays:
[1] = tested on: P. aeruginosa PA103; assay: Wound model of infection with PA103 in normal (C57BL) mice; type: in vivo; details: for infection control against P. aeruginosa PA103 in normal wounds: C57B mice, immunomodulator added locally at time of infection, compared to PBS, FIGS. 3A, 4A, 4B, 6A
Experimental: The implant model of infection in C57B mice was used for 10^6 PA103 (FIG. 2A) or 10^6 USA300 MRSA (FIG. 2C). The wound model of infection was used for 10^6 PA103 in C57BL mice (FIG. 2B) or diabetic db/db mice (FIG. 2D). Infection was carried out at the time of surgery by adding bacteria directly to the surgical sites. Immunomodulators, namely, LPS (10 ng or 100 ng), fMLP (10 ng or 100 ng), CCL3 (1 μg) were added topically at the surgical sites at the time of surgery & infection. GM-CSF (10 μg/kg), tobramycin (Tob at 3.5 mg/kg), and vancomycin (40 mg/kg) were added systemically by i.p. injection 1 h before surgical implantation and infection. Infection levels were determined 24 h following infection (N>4 animals/group; NS=not significant, * p<0.01, ** p<0.001, ***p<0.0001 One-way ANOVA).
(15A) C57BL/6 mice received 40 mg/kg prophylaxis (Sys) vancomycin (Vanc) or 3.5 mg/kg tobramycin (Tobra) by i.p. injection. (15A) 1 h after antibiotic administration, 106 CFU of USA300 was added to implant after insertion into facia (Implant Model). (15B) 1 h after antibiotic administration, 10^6CFU of USA300 or 106CFU PA103 (Pa) were added full-thickness wounds in of C57BL/6 (Wound Model). Infection levels at implant surgical site (Tissue & Implant) or a distant site (Spleen), or wound tissues were assessed 24 h following infection. (N>4 animals/group, * p<0.01, ***p<0.0001, One-way ANOVA).
We assessed these immunomodulators for their ability to control wound and/or implant SS's in normal (C57BL/6) or diabetic (db/db) mice. We acknowledge that diabetic individuals are not as immunocompromised as other immunocompromised patient groups. […] All immunomodulators were added locally at the surgical sites at the time of infection, except GM-CSF (10 μg/kg) which was administered systemically by i.p. injection 1 h prior to surgery per its FDA-approved route of delivery. […] CCL3 and GM-CSF are also tested using the implant model of infection. Here, we tested CCL3 and GM-CSF in the wound model of infection in C57B mice.
Implant surgery and wound surgery and surgical site infection are performed according to the following method. On the day of surgery, all mice are anesthetized by an intraperitoneal injection of a ketamine/xylazine mixture (90 mg/kg ketamine+5 mg/kg xylazine for mice). The back of the animals is shaved using an electric shave and scrubbed with alcohol swabs 3 times, a topical antiseptic solution (Hibiclens; chlorhexidine gluconate) is applied to the skin. The surgical procedures are performed with sterile instruments, sterile surgical gloves, and aseptic techniques as follows. For wound surgical procedure, a sterile biopsy punch (5-7 mm diameter) is used to punch through the full thickness of the back skin below the shoulder blades. Four 5-7 mm skin wounds are made on the back of each mouse. Wounds placed in this area cannot be reached by the animals and therefore are protected from self-licking. For implant surgery, a 4-mm long lateral skin incision is made on the upper back, and the skin is retracted. The space above the muscle is opened using blunt dissection with fine forceps, to create a rostral fascia indentation. Then, immunomodulators at indicated concentrations (in a 20 μL volume) or PBS control are injected into the fascia indentation.

[2] = tested on: inflammatory responses (IL-1 β, TNFα); assay: Neutrophilia and inflammatory responses in diabetic wounds; type: in vivo, db/db mice
Source text: P. aeruginosa PA103 10^3 N=4; Significance determined as compared to PBS *<0.05, **p<0.01, ***p<0.001.
FIG. 13A illustrates that TLR4 ligand increases antimicrobial defenses in diabetic wounds against P. aeruginosa and FIG. 13B TLR4 ligand stimulates inflammatory responses in diabetic wounds. N=4; Significance determined as compared to PBS *<0.05, **p<0.01, ***p<0.001.
Tissue-Tek O.C.T. (Sakura); Lysing Matrix D (MP Biomedicals); Collagenase (Roche Diagnostics), Hematoxylin and eosin (H&E); DNase 1 (Sigma-Aldrich); Hyluronidase, Streptozotocin (Sigma-Aldrich); Trizol (Invitrogen); CD45 antibody (eBioscience, Inc); Ly6C; Ly6G; CD11b; CD3 (BioLegend); CD68; GAPDH (Sigma-Aldrich). Ly6G and CD68 (Abcam); Primer pairs for GAPDH were from Qiagen. Masson's trichrome stain (Sigma-Aldrich); Picrosirius red (Abcam); Fibronectin (Chemicon International); Insulin slow-release capsules (Linplant; LinShin, Toronto, Canada) CCL3 (R&D Systems) fMLP (Sigma-Aldrich); II-1β ELISA (R&D Systems); TNF-α ELISA (R&D Systems).

Molecule	infection control against P. aeruginosa PA103 in normal wounds [1]	inflammatory responses in diabetic wounds ([2]; compared to PBS, FIG. 13B)	controlling PA103 infection, compared with prophylaxis tobramycin ([1]; C57B mice wound model, topical CCL3 1 μg, both at 10^3 and 10^6 CFU, tobramycin 3.5 mg/kg i.p., FIG. 2B)	neutrophilia in infected diabetic wounds ([2]; P. aeruginosa PA103 10^3, FIG. 12A)	persistent inflammatory responses (IL-1 β, TNFα) in infected diabetic wounds ([2]; P. aeruginosa PA103 10^3, FIG. 12B, 12C)
CSCC[C@H](NC=O)C(=O)N[C@@H](CC(C)C)C(=O)N[C@@H](Cc1ccccc1)C(=O)O [fMLP, N-Formylmethionyl-leucyl-phenylalanine]	enhance; also recorded: significantly improved	–	–	–	–
lipopolysaccharide [LPS]	enhance; also recorded: significantly improved	stimulates	–	–	–
Chemokine (C-C motif) ligand 3 (protein, listed as Homo sapiens, class 1 immunomodulator) MQVSTAALAVLLCTMALCNQFSASLAADTPTACCFSYTSRQIPQNFIADYFETSSQCSKPGVIFLTKRSRQVCADPSEEWVQKYVSDLELSA	enhances; also recorded: effective	–	as effective	does not lead to	does not lead to
